We go through two molecules from patent US20260109980A1 (TRUSTEES OF COLUMBIA UNIVERSITY IN THE CITY OF NEW YORK, published 2026).

The chains are these.
B1: Vibrio cholerae Cas6 (enzyme)
chain: not shown
notes: Ribonuclease subunit of Cascade, seen within the TniQ-Cascade cryo-EM structure; also called VchCas6; Csy4
B2: Vibrio cholerae Cas7 (other)
chain: not shown
notes: Six copies stand in Cascade; Cas7.1 is the monomer furthest from Cas8 and next to Cas6, and Cas7.2 is the next one; also called VchCas7; Cas7.1

The assay “Vibrio cholerae Cas7” deals with B2. The assay is described as follows: cryo-EM structure.
The assay “Vibrio cholerae Cas6” has as its target B1. In words: cryo-EM structure.

In the case of B1, the binding result with Vibrio cholerae Cas7 is reported as “binds”.

Turning to B2, the binding result with Vibrio cholerae Cas6 is reported as “binds”.
